Measured values from patent US20180092984A1 (Seagen, published 2018).
One block for each molecule: values may come before it.

Assays:
[1] = molecular target: cynomolgus monkey CD48 (cynomolgus monkey); experiment: flow cytometry saturation binding, Alexa Fluor-647 antibody on CHO-DG44 cells expressing cynomolgus monkey CD48
human CD48 [2] = molecular target: T1, human CD48 (human, UniProt P09326 27-220); experiment: flow cytometry saturation binding, Alexa Fluor-647 antibody on U-266 cells
T1 construct: whole, on cells; also called BLAST-1; SLAMF2
T1 sequence (looked up): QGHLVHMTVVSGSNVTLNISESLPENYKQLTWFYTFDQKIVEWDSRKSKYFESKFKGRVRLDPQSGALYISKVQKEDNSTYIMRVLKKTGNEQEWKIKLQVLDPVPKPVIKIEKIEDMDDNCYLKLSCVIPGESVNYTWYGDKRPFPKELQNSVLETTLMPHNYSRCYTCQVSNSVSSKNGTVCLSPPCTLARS
Experimental: (§1) After one hour incubation on ice, cells were washed twice with phosphate buffered saline containing 2% fetal bovine serum and 0.02% sodium azide. Fluorescence was detected on a LSRII flow cytometer and Kd values were determined using one-site binding (hyperbola) non-linear regression in GraphPad Prism.

human CD48 [3] = molecular target: T1, human CD48; experiment: flow cytometry saturation binding, U-266 cells against CHO-DG44 cynomolgus monkey CD48 cells
Experimental: as §1

[4] = molecular target: cynomolgus monkey CD48 (cynomolgus monkey); experiment: flow cytometry saturation binding on CHO-DG44 cells expressing cynomolgus monkey CD48
human CD48 [5] = molecular target: T1, human CD48; experiment: flow cytometry saturation binding on U-266 cells
Experimental: as §1

Kd [1]: 40.5 nM
Kd (human CD48 [2]): 5.8 nM
fold stronger binding affinity to human CD48 compared to cynomolgus monkey CD48 (human CD48 [3]): 6 fold
fold lower Kd compared to mMEM102 [4]: > 4 fold
fold lower Kd compared to mMEM102 (human CD48 [5]): > 4 fold
Molecule: cMEM102 (antibody)

Kd [1]: 165 nM
Kd (human CD48 [2]): 20.8 nM
fold stronger binding affinity to human CD48 compared to cynomolgus monkey CD48 (human CD48 [3]): 6 fold
Molecule: mMEM102 (antibody)

Kd [1]: 31.1 nM
Kd (human CD48 [2]): 5 nM
fold stronger binding affinity to human CD48 compared to cynomolgus monkey CD48 (human CD48 [3]): ~6 fold
fold lower Kd compared to mMEM102 [4]: > 4 fold
fold lower Kd compared to mMEM102 (human CD48 [5]): > 4 fold
B1: hMEM102-HALA (antibody, V domains shown)
VH: QVQLVQSGSELKKPGASVKVSCKASGYTFTDFGMNWVRQAPGQGLEWMGWINTFTGEPSYGNVFKGRFVFSLDTSVSTAYLQISSLKAEDTAVYYCARRHGNGNVFDSWGQGTLVTVSS
VL: EIVLTQSPDFQSVTPKEKVTITCRASQSIGSNIHWYQQKPDQSPKLLIKYTSESISGVPSRFSGSGSGTDFTLTINSLEAEDAATYYCQQSNSWPLTFGGGTKVEIKR
notes: also called humanized MEM102 antibody; humanized MEM102-HALA antibody
